Laboratory results from US8986682B2, “Method to increase the absorption of unsaturated fatty acids by human infants” (Swedish Orphan Biovitrum AB (publ), priority 2010, dated 2015).
Where “and” joins values, the source holds several entries; their conditions need not be identical. Equal entries are not always repeated. Marks after values point to notes of the source that are not given here.

Tested on: preterm infants born before week 32 of gestational age
Experiment: Coefficient of fat absorption (CFA), fat balance of food and stool by gas chromatography, studies BVT.BSSL-020/-021
Type: in vivo, human
Design: Coefficient of Absorption of AA (C20:4 n-6), Minimum: concentration or dose not given beside the values
Conditions: for CFA (overall), LS Mean Difference (rhBSSL − Placebo) / CFA (overall), Maximum / CFA (overall), Mean (SD) / CFA (overall), Median / CFA (overall), Minimum: last 72 h of 7-day treatment
Procedure: Patients were randomized to infant formula/pasteurized breast milk supplemented with rhBSSL at a final concentration of 0.15 g/L, or to infant formula/pasteurized breast milk “supplemented” with sterile water for injection (as placebo) for the first 7 days. After a washout period of 2 days, the patient was “crossed over” to the other treatment regimen during a second 7-day treatment period. Collection of feces samples for CFA assessment were performed during the last 3 days (72 hours) of each treatment period.
The collection of feces for the determination of CFA was performed over a period corresponding to the fat, i.e., formula or milk, ingestion during 72 hours toward the end of each treatment period. Diapers supplied to each site were used for feces collection. During the two treatment periods, a carmine red tracer dye was given as a marker together with a meal (approximately at noon) on Day 4 and Day 13, respectively, and collection of stool commenced with the appearance of the first carmine red marker in the stool. The stool containing the first marker was collected and the date and time of the first stool collected was recorded on the CRF. At 72 hours following administration of the first red marker, the second carmine marker was given, and stool collection continued until the second carmine marker appeared. The stool containing the second marker was not collected, but the date and time of the appearance of the second marker was recorded on the CRF. Diapers were weighed before placement and after removal and the difference in weight was recorded on the CRF. The times of each collection and the elapsed duration of the entire collection period was also recorded on the CRF. The use of ointments for the treatment of skin irritation was prohibited during the stool collection period. Diapers were to be changed frequently during the collection period to keep the skin dry. Patients with skin rash severity leading to discontinuation of the stool collection were to be withdrawn from the study. Specific collection methods were provided in a separate laboratory manual. If applicable, vomit from the stool collection periods of both treatment periods was weighed. A small cloth/linen was weighed and placed under the head of each infant. When the cloth/linen was soiled with vomit, it was removed and re-weighed. If an additional cloth was used to remove vomit from the infant, that cloth was also weighed before and after use. The weight of vomit (total weight minus the weight of the cloth/linen) was recorded on the CRF. All other feed losses, e.g., formula or milk left in bottle, were measured and the amount accounted for in the calculation of the volume of formula consumed at each feeding.
Feces samples, the formula (study 020) and the milk aliquots (study 021) were analyzed by a central laboratory. Individual fatty acids, including the long-chain polyunsaturated fatty acids DHA and AA, were quantified in feces and feed by a gas chromatographic method following extraction by the Folch method. In both studies, the Omegawax 250 column (Supelco) was used for separation of the fatty acids. However, due to co-elution of DHA with nervonic acid (C24:1), which was only present in the breast milk, samples from patients of the per-protocol analysis set from study 021 were also analyzed using a SP-2380 column (Supelco) in order to quantify DHA for those samples from study 021. […] Total lipids were calculated as the sum of the individual fatty acids. (See Section 7.5.1). The same analytical principle was used to determine lipids in each of the batches of formula and aliquots of breast milk used in the study. […]

[1] = BVT.BSSL-021 (pasteurized breast milk), PP
[2] = BVT.BSSL-021 (pasteurized breast milk), PP, 72-hour collection period
[3] = BVT.BSSL-021 Pasteurized milk, PP
[4] = combined analysis, PP, post hoc
[5] = combined data, PP, 72-hour collection, rhBSSL (N = 46)

B1: rhBSSL: recombinant human bile-salt-stimulated lipase, SEQ ID. NO. 1, expressed from recombinant CHO cells; used in both clinical trials (protein, listed as Homo sapiens)
chain: AKLGAVYTEGGFVEGVNKKLGLLGDSVDIFKGIPFAAPTKALENPQPHPGWQGTLKAKNFKKRCLQATITQDSTYGDEDCLYLNIWVPQGRKQVSRDLPVMIWIYGGAFLMGSGHGANFLNNYLYDGEEIATRGNVIVVTFNYRVGPLGFLSTGDANLPGNYGLRDQHMAIAWVKRNIAAFGGDPNNITLFGESAGGASVSLQTLSPYNKGLIRRAISQSGVALSPWVIQKNPLFWAKKVAEKVGCPVGDAARMAQCLKVTDPRALTLAYKVPLAGLEYPMLHYVGFVPVIDGDFIPADPINLYANAADIDYIAGTNNMDGHIFASIDMPAINKGNKKVTEEDFYKLVSEFTITKGLRGAKTTFDVYTESWAQDPSQENKKKTVVDFETDVLFLVPTEIALAQHRANAKSAKTYAYLFSHPSRMPVYPKWVGADHADDIQYVFGKPFATPTGYRPQDRTVSKAMIAYWTNFAKTGDPNMGDSAVPTHWEPYTTENSGYLEITKKMGSSSMKRSLRTNFLRYWTLTYLALPTVTDQEATPVPPTGDSEATPVPPTGDSETAPVPPTGDSGAPPVPPTGDSGAPPVPPTGDSGAPPVPPTGDSGAPPVPPTGDSGAPPVPPTGDSGAPPVPPTGDSGAPPVPPTGDAGPPPVPPTGDSGAPPVPPTGDSGAPPVTPTGDSETAPVPPTGDSGAPPVPPTGDSEAAPVPPTDDSKEAQMPAVIRF
- CFA for C20:3 n-6 (sum of C20:3 n-6 and C20:3 n-3), Difference (rhBSSL − Placebo) [1]: 8.91* %
- CFA for C20:4 n-6 (AA) [1]: 72.10%
- CFA for C20:4 n-6 (AA), Difference (rhBSSL − Placebo) [1]: 10.82* %
- CFA for C22:6 n-3 (DHA) [1]: 78.49%
- CFA for C22:6 n-3 (DHA), Difference (rhBSSL − Placebo) [1]: 4.72* %
- CFA for C24:1 [1]: 36.85%
- CFA for C24:1, Difference (rhBSSL − Placebo) [1]: 7.68%
- Total Amount of Fat in Stool, Maximum [2]: 13.3 g
- Total Amount of Fat in Stool, Mean (SD) [2]: 6.16 g and 6.16 (3.550) g
- Total Amount of Fat in Stool, Median [2]: 4.99 g
- Total Amount of Fat in Stool, Minimum [2]: 0.9 g
- Coefficient of absorption of the sum of all LCPUFAs, LS mean [3]: 70.2%
- Coefficient of absorption of the sum of all LCPUFAs, LS mean difference (rhBSSL-Placebo) [3]: 8.02%
- Coefficient of absorption of the sum of all polyunsaturated fatty acids, LS mean [3]: 70.7%
- Coefficient of absorption of the sum of all polyunsaturated fatty acids, LS mean difference (rhBSSL-Placebo) [3]: 6.92%
- Coefficient of absorption of the sum of all saturated fatty acids, LS mean [3]: 66.1%
- Coefficient of absorption of the sum of all saturated fatty acids, LS mean difference (rhBSSL-Placebo) [3]: 4.36%
- Coefficient of absorption of the sum of all unsaturated fatty acids, LS mean [3]: 70.6%
- Coefficient of absorption of the sum of all unsaturated fatty acids, LS mean difference (rhBSSL-Placebo) [3]: 5.10%
- CFA for C12:0 [4]: 88.86%
- CFA for C12:0, Difference (rhBSSL − Placebo) [4]: 2.42%
- CFA for C14:0 (myristic acid) [4]: 76.15%
- CFA for C14:0 (myristic acid), Difference (rhBSSL − Placebo) [4]: 4.81%
- CFA for C16:0 [4]: 55.49%
- CFA for C16:0, Difference (rhBSSL − Placebo) [4]: 2.61%
- CFA for C18:0 [4]: 44.28%
- CFA for C18:0, Difference (rhBSSL − Placebo) [4]: 1.51%
- CFA for C18:1 [4]: 73.66%
- CFA for C18:1, Difference (rhBSSL − Placebo) [4]: 3.65%
- CFA for C18:2 n-6 (linoleic acid) [4]: 77.49%
- CFA for C18:2 n-6 (linoleic acid), Difference (rhBSSL − Placebo) [4]: 5.79%
- CFA for C18:3 n-3 (alpha-linolenic acid) [4]: 76.31%
- CFA for C18:3 n-3 (alpha-linolenic acid), Difference (rhBSSL − Placebo) [4]: 3.66%
- Total Amount of Fat in Stool, Maximum [5]: 15.0 g
- Total Amount of Fat in Stool, Mean (SD) [5]: 7.50 g and 7.50 (3.635) g
- Total Amount of Fat in Stool, Median [5]: 7.05 g
- Total Amount of Fat in Stool, Minimum [5]: 0.9 g
- Total Amount of Fat in Stool, Mean (SD) (combined data, PP, second column also headed rhBSSL (N = 46), placebo according to b324): 8.36 (4.018) g
- Coefficient of Absorption of AA (C20:4 n-6), LS Mean (combined studies 020+021, FAS): 77.60%
- Coefficient of Absorption of AA (C20:4 n-6), LS Mean Difference (rhBSSL − Placebo) (combined studies 020+021, FAS): 8.70%
- Coefficient of Absorption of AA (C20:4 n-6), Maximum (combined studies 020+021, FAS): 100.0%
- Coefficient of Absorption of AA (C20:4 n-6), Mean (SD) (combined studies 020+021, FAS): 77.88 (17.628) %
- Coefficient of Absorption of AA (C20:4 n-6), Median (combined studies 020+021, FAS): 81.28%
- Coefficient of Absorption of AA (C20:4 n-6), Minimum (combined studies 020+021, FAS): 26.6%
- Coefficient of Absorption of DHA (C22:6 n-3), LS Mean (combined studies 020+021, FAS): 77.91%
- Coefficient of Absorption of DHA (C22:6 n-3), LS Mean Difference (rhBSSL − Placebo) (combined studies 020+021, FAS): 6.24%
- Coefficient of Absorption of DHA (C22:6 n-3), Maximum (combined studies 020+021, FAS): 100.0%
- Coefficient of Absorption of DHA (C22:6 n-3), Mean (SD) (combined studies 020+021, FAS): 77.97 (16.251) %
- Coefficient of Absorption of DHA (C22:6 n-3), Median (combined studies 020+021, FAS): 81.22%
- Coefficient of Absorption of DHA (C22:6 n-3), Minimum (combined studies 020+021, FAS): 26.8%
- CFA (overall), LS Mean Difference (rhBSSL − Placebo) (combined studies 020+021, FAS): 3.70%
- CFA (overall), Maximum (combined studies 020+021, FAS): 93.2%
- CFA (overall), Mean (SD) (combined studies 020+021, FAS): 67.80 (16.663) %
- CFA (overall), Median (combined studies 020+021, FAS): 71.09%
- CFA (overall), Minimum (combined studies 020+021, FAS): 11.7%
- Coefficient of Absorption of AA (C20:4 n-6), LS Mean (combined studies 020+021, PP): 77.36%
- Coefficient of Absorption of AA (C20:4 n-6), LS Mean Difference (rhBSSL − Placebo) (combined studies 020+021, PP): 8.63%
- Coefficient of Absorption of AA (C20:4 n-6), Maximum (combined studies 020+021, PP): 100.0%
- Coefficient of Absorption of AA (C20:4 n-6), Mean (SD) (combined studies 020+021, PP): 78.01 (16.881) %
- Coefficient of Absorption of AA (C20:4 n-6), Median (combined studies 020+021, PP): 81.01%
- Coefficient of Absorption of AA (C20:4 n-6), Minimum (combined studies 020+021, PP): 26.6%
- Coefficient of Absorption of DHA (C22:6 n-3), LS Mean (combined studies 020+021, PP): 79.83%
- Coefficient of Absorption of DHA (C22:6 n-3), LS Mean Difference (rhBSSL − Placebo) (combined studies 020+021, PP): 5.80%
- Coefficient of Absorption of DHA (C22:6 n-3), Maximum (combined studies 020+021, PP): 100.0%
- Coefficient of Absorption of DHA (C22:6 n-3), Mean (SD) (combined studies 020+021, PP): 79.76 (14.075) %
- Coefficient of Absorption of DHA (C22:6 n-3), Median (combined studies 020+021, PP): 82.90%
- Coefficient of Absorption of DHA (C22:6 n-3), Minimum (combined studies 020+021, PP): 42.2%
- CFA (overall), LS Mean Difference (rhBSSL − Placebo) (combined studies 020+021, PP): 3.56%
- CFA (overall), Maximum (combined studies 020+021, PP): 93.2%
- CFA (overall), Mean (SD) (combined studies 020+021, PP): 69.08% and 69.08 (14.683) %
- CFA (overall), Median (combined studies 020+021, PP): 71.83%
- CFA (overall), Minimum (combined studies 020+021, PP): 31.2%
- Relative increase of overall CFA compared to the LS mean for placebo (combined studies, PP): 5.4%
- Relative increase of overall CFA compared to the LS mean for placebo (formula-fed infants (BVT.BSSL-020), PP): 3.1%
